# Experimental data as given in US10125184B2, “Apolipoprotein E polypeptides and their use” (priority 2011, dated 2018).
# B1: hEP: human apoE dual-domain peptide: helix 4 of N-terminal domain plus major lipid-binding region; expressed in bacteria (protein)
# peptide: EELRVRLASHLRKLRKRLLRDADDLQKRLAVYEEQAQQIRLQAEAFQARLKSWFEPLVEDM
# Legend:
# Huh7.5.1 cells = test: Cytotoxicity/cell viability assay (CellTiter-Glo); format: cell-based; conditions: 48 hours; hEP up to 100 μg/ml (~14 μM)
# Procedure: FIGS. 1A-1C. A human apoE derived peptide (hEP) suppresses HCV infection. (A) Schematic illustration of apoE protein domains and the amino acid sequences of hEP and mEP peptides. The amino acid sequences shown are hEP-1 (SEQ ID NO: 6) and mEP (SEQ ID NO: 20). (B) Dose dependent inhibition of HCVcc infection by hEP. Huh7.5.1 cells were infected with JFH-1 HCVcc-Luc (MOI˜0.5) in the presence of hEP or mEP for 2 hours. After removal of virus and peptides, cells were further incubated for 48 hours prior to luciferase assay. Data are presented as % inhibition relative to control infections in which cells were treated with DMSO (0%). Results are expressed as mean±standard deviation (s.d.) (n=3). (C). Huh7.5.1 cells were treated with hEP or DMSO at indicated doses for 48 hours. The effect of hEP on cell viability was measured by a CellTiter Glo assay kit.
# Huh7.5.1 cells (10^5 per well) were treated with hEP or DMSO at various concentrations for 48 hours in 24-well plates. The numbers of viable cells in culture were determined using the CELLTITER-GLO® Cell Viability Luminescent Assay kit according to the manufacturer's instruction (Promega).
molecule,measurement,setting,value
B1,Cytotoxicity (cell viability),Huh7.5.1 cells,no cytotoxicity
same,Effect on infectivity of HIV-1,HIV-1,did not affect the infectivity
